Patent US9175313B2, “Three-dimensional structure of isoprene synthase and its use thereof for generating variants” (Danisco US Inc., priority 2009, dated 2015)

Assay: Isoprene synthase activity vs temperature (DMAPP assay, 25 to 80 C)
Type: biochemical
Details: FIG. 58
Description: The activity of wild type IspS and variants IspS-L494P and IspS-T536F was measured across a spectrum of temperatures. Individual DMAPP assays were performed at 5° C. intervals from 25° C. to 80° C. by incubating the vials in a pre-heated water bath.
The following reaction mixture was used for the DMAPP assay: 25 μL purified protein, 5 μL MgCl2 (1 M), 5 μL DMAPP (100 mM), and 65 μL 100 mM Tris pH 8, 100 mM NaCl for a total volume of 100 μL. The reaction is performed at the specified temperature for 15 minutes in a gas tight 1.8 mL GC tube. Reactions are terminated by the addition of 100 μL 500 mM EDTA (pH 8). The amount of isoprene produced was measured by GC/MS.
The analysis was performed using an Agilent 6890 GC/MS system interfaced with a CTC Analytics CombiPAL autosampler operating in headspace mode. An Agilent HP-5MS GC/MS column (30 m×0.25 mm; 0.25 μm film thickness) was used for separation of analytes. The sampler was set up to inject 500 μL of headspace gas. The GC/MS method utilized helium as the carrier gas at a flow of 1 ml/min. The injection port was held at 250° C. with a split ratio of 50:1. The oven temperature was held at 37° C. for the […] duration of the analysis. The Agilent 5793N mass selective detector was run in single ion monitoring (SIM) mode on m/z 67. The detector was switched off from 1.4 to 1.7 minutes to allow the elution of permanent gases.

B1: T536F: P. alba IspS variant T536F; pDW87, strain DW363, SEQ ID NO: 95 (protein)
chain: MEARRSANYEPNSWDYDYLLSSDTDESIEVYKDKAKKLEAEVRREINNEKAEFLTLLELIDNVQRLGLGYRFESDIRGALDRFVSSGGFDAVTKTSLHGTALSFRLLRQHGFEVSQEAFSGFKDQNGNFLENLKEDIKAILSLYEASFLALEGENILDEAKVFAISHLKELSEEKIGKELAEQVNHALELPLHRRTQRLEAVWSIEAYRKKEDANQVLLELAILDYNMIQSVYQRDLRETSRWWRRVGLATKLHFARDRLIESFYWAVGVAFEPQYSDCRNSVAKMFSFVTIIDDIYDVYGTLDELELFTDAVERWDVNAINDLPDYMKLCFLALYNTINEIAYDNLKDKGENILPYLTKAWADLCNAFLQEAKWLYNKSTPTFDDYFGNAWKSSSGPLQLVFAYFAVVQNIKKEEIENLQKYHDTISRPSHIFRLCNDLASASAEIARGETANSVSCYMRTKGISEELATESVMNLIDETWKKMNKEKLGGSLFAKPFVETAINLARQSHCTYHNGDAHTSPDELTRKRVLSVIFEPILPFERENLYFQGLEHHHHHH
For B1, the “temperature activity ratio curve (specific activity at a given temperature / at 35° C.), in words” value was “increased activity and thermostability”.
